Paper PMC3107500 (2011)

B1: CCL4 (protein)
chain: APMGSDPPTACCFSYTARKLPRNFVVDYYETSSLCSQPAVVFQTKRSKQVCADPSESWVQEYVYDLELN
B2: CCL18 (protein)
chain: GTNKELCCLVYTSWQIPQKFIVDYSETSPQCPKPGVILLTKRGRQICADPNKKWVQKYISDLKLNA
B3: CCL3 (protein)
chain: SLAADTPTACCFSYTSRQIPQNFIADYFETSSQCSKPGVIFLTKRSRQVCADPSEEWVQKYVSDLELSA

Biological target: T1, PITPNM3 (Homo sapiens, UniProt Q9BZ71)
T1 chain: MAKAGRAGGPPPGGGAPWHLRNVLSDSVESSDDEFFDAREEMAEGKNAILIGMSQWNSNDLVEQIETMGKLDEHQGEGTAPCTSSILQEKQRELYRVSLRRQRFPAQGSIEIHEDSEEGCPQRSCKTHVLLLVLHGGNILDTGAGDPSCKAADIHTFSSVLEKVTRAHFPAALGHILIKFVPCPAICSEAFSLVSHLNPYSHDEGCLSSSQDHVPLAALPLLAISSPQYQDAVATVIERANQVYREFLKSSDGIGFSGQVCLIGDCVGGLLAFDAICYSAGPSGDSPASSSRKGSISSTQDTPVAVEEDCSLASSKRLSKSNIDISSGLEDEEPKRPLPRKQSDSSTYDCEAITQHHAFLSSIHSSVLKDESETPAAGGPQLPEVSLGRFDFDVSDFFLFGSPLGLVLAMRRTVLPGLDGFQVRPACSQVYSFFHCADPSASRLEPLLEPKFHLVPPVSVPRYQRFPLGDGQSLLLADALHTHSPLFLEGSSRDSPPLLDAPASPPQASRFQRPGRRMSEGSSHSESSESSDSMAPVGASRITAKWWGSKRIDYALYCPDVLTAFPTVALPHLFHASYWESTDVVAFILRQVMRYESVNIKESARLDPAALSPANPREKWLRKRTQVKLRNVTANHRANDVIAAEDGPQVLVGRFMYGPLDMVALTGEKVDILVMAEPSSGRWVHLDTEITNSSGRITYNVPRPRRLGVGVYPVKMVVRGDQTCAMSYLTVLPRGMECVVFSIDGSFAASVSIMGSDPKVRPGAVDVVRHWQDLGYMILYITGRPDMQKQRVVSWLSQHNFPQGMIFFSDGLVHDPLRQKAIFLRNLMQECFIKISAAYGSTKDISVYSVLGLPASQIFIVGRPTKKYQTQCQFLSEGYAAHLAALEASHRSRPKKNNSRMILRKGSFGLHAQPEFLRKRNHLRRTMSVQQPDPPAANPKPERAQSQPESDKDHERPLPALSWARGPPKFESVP
Experiment: 125I-CCL18 radioligand competition binding on PITPNM3-transfected HEK293 cells

Binder	Kd [nM]
B1	833
B2	5.17
B3	277
